Target: VDR:RXRa (Homo sapiens, UniProt P11473;P19793 full;full)
Experiment: no ligand; PBM; 270 nM : 90 nM RXRa; PBS pH 7.4, 2% milk, 0.02% Triton X-100, 1 mM DTT, BSA, 0.4 mg/ml salmon testes DNA
Settings: tags: His kept;His cleaved; copies: 1;1; label: surface-attached array probe
Outline: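 The probes on custom Agilent 4×180K protein-binding microarrays were double-stranded, with 34-nt variable regions bearing direct-repeat seeds, single-nucleotide variants, half-site ablations and random human genomic background sequences. Incubation lasted 1 h with ligand-free nuclear receptor dimers in PBS pH 7.4, 2% milk, 0.02% Triton X-100, 1 mM DTT, 0.2 mg/mL BSA and 0.4 mg/ml salmon testes DNA. Antibodies against each partner (one per run) detected bound dimers, and fluorescence scans were regression-normalized. Binding z-scores take the random background probes as reference.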

Chain of VDR:RXRa (P11473 whole entry, chain 1 of 2): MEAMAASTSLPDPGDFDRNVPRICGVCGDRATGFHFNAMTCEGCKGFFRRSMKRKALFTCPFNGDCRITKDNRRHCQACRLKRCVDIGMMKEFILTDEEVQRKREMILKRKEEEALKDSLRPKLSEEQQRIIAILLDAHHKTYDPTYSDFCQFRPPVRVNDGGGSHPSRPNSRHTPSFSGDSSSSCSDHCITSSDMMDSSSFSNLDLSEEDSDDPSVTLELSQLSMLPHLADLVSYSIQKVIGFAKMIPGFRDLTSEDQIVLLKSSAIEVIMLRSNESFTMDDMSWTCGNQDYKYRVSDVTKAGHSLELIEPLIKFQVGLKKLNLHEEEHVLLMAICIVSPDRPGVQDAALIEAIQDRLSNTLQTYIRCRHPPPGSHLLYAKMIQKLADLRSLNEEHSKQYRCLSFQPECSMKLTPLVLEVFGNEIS
Chain of VDR:RXRa (P19793 whole entry, chain 2 of 2): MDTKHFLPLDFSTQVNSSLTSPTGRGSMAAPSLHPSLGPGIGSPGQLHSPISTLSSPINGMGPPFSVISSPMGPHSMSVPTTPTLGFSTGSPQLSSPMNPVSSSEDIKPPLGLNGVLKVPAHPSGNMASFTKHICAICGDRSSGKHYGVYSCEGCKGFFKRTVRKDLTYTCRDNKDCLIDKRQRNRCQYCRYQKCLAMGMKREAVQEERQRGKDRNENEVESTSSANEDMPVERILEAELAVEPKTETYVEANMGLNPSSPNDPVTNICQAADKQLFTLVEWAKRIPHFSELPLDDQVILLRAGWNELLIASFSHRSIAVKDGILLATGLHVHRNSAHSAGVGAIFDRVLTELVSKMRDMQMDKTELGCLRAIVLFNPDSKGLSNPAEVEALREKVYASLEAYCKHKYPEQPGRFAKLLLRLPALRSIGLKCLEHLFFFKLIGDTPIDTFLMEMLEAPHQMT

Binder	binding signal
NRC3_wobSeed65_DR2_C16G_o1 (dsDNA) DNA 1: GCATATGTAGGTTATGGGGTCATTCAGTTTGCGCATGCGATTGACAGCGTAGAATGAAGG DNA 2: CCTTCATTCTACGCTGTCAATCGCATGCGCAAACTGAATGACCCCATAACCTACATATGC	6.73 PBM z-score against 500 random probes
NRC3_wobSeed95_DR3_G22T_o1 (dsDNA) DNA 1: GCAGAACGAGGGCAATGAGTTTATAGCACGGGTGGCGCGATTGACAGCGTAGAATGAAGG DNA 2: CCTTCATTCTACGCTGTCAATCGCGCCACCCGTGCTATAAACTCATTGCCCTCGTTCTGC	6.73 PBM z-score against 500 random probes
NRC3_wobSeed74_DR3_G16C_o1 (dsDNA) DNA 1: GCTCTAGTTGGTCACCGAGGTCACACACGACGGGTAGCGATTGACAGCGTAGAATGAAGG DNA 2: CCTTCATTCTACGCTGTCAATCGCTACCCGTCGTGTGTGACCTCGGTGACCAACTAGAGC	6.63 PBM z-score against 500 random probes
NRC3_wobSeed94_DR3_A17G_o1 (dsDNA) DNA 1: GCCTACCAAGGTGAACGAGGTCGTTGATTACTATTCGCGATTGACAGCGTAGAATGAAGG DNA 2: CCTTCATTCTACGCTGTCAATCGCGAATAGTAATCAACGACCTCGTTCACCTTGGTAGGC	6.62 PBM z-score against 500 random probes
NRC3_wobSeed95_DR3_A9G_o1 (dsDNA) DNA 1: GCAGAACGGGGGCAATGAGTTGATAGCACGGGTGGCGCGATTGACAGCGTAGAATGAAGG DNA 2: CCTTCATTCTACGCTGTCAATCGCGCCACCCGTGCTATCAACTCATTGCCCCCGTTCTGC	6.59 PBM z-score against 500 random probes
NRC3_wobSeed74_DR3_G20T_o1 (dsDNA) DNA 1: GCTCTAGTTGGTCACGGAGTTCACACACGACGGGTAGCGATTGACAGCGTAGAATGAAGG DNA 2: CCTTCATTCTACGCTGTCAATCGCTACCCGTCGTGTGTGAACTCCGTGACCAACTAGAGC	6.57 PBM z-score against 500 random probes
NRC3_wobSeed41_DR1_C24G_o1 (dsDNA) DNA 1: GCATATGTAGGTTAAGGGTCATTGAGGTTGGTTCGCGCGATTGACAGCGTAGAATGAAGG DNA 2: CCTTCATTCTACGCTGTCAATCGCGCGAACCAACCTCAATGACCCTTAACCTACATATGC	6.5 PBM z-score against 500 random probes
NRC3_wobSeed66_DR2_o1 (dsDNA) DNA 1: GCAATACAGGGTCACTAGGCCAGAGTAGGTACGAATGCGATTGACAGCGTAGAATGAAGG DNA 2: CCTTCATTCTACGCTGTCAATCGCATTCGTACCTACTCTGGCCTAGTGACCCTGTATTGC	4.15 PBM z-score against 500 random probes
NRC3_wobSeed66_DR2_G9A_o1 (dsDNA) DNA 1: GCAATACAAGGTCACTAGGCCAGAGTAGGTACGAATGCGATTGACAGCGTAGAATGAAGG DNA 2: CCTTCATTCTACGCTGTCAATCGCATTCGTACCTACTCTGGCCTAGTGACCTTGTATTGC	4.1 PBM z-score against 500 random probes
NRC3_wobSeed119_DR4_C7A_o1 (dsDNA) DNA 1: GCGGAAAGAGGGCATTCGAGTTGATAGCATGGCGATGCGATTGACAGCGTAGAATGAAGG DNA 2: CCTTCATTCTACGCTGTCAATCGCATCGCCATGCTATCAACTCGAATGCCCTCTTTCCGC	4.08 PBM z-score against 500 random probes
NRC3_wobSeed101_DR4_o1 (dsDNA) DNA 1: GCCCTTACGGGTCACTCCAGGTTATAGCATCGGAGTGCGATTGACAGCGTAGAATGAAGG DNA 2: CCTTCATTCTACGCTGTCAATCGCACTCCGATGCTATAACCTGGAGTGACCCGTAAGGGC	4.06 PBM z-score against 500 random probes
NRC3_wobSeed22_DR0_T25C_o1 (dsDNA) DNA 1: GCTTACCAAGGTGAAGGTCGTTGACCCCTCTGTAGAGCGATTGACAGCGTAGAATGAAGG DNA 2: CCTTCATTCTACGCTGTCAATCGCTCTACAGAGGGGTCAACGACCTTCACCTTGGTAAGC	4.04 PBM z-score against 500 random probes
NRC3_wobSeed61_DR2_T24G_o1 (dsDNA) DNA 1: GCCGTCCAAGGTCAGCAGGTCAGGGAAAGCGACGTGGCGATTGACAGCGTAGAATGAAGG DNA 2: CCTTCATTCTACGCTGTCAATCGCCACGTCGCTTTCCCTGACCTGCTGACCTTGGACGGC	4.03 PBM z-score against 500 random probes
NRC3_wobSeed61_DR2_G25A_o1 (dsDNA) DNA 1: GCCGTCCAAGGTCAGCAGGTCAGTAAAAGCGACGTGGCGATTGACAGCGTAGAATGAAGG DNA 2: CCTTCATTCTACGCTGTCAATCGCCACGTCGCTTTTACTGACCTGCTGACCTTGGACGGC	4 PBM z-score against 500 random probes
NRC3_wobSeed61_DR2_o1 (dsDNA) DNA 1: GCCGTCCAAGGTCAGCAGGTCAGTGAAAGCGACGTGGCGATTGACAGCGTAGAATGAAGG DNA 2: CCTTCATTCTACGCTGTCAATCGCCACGTCGCTTTCACTGACCTGCTGACCTTGGACGGC	3.97 PBM z-score against 500 random probes
NRC3_wobSeed50_DR2_G7A_o1 (dsDNA) DNA 1: GCCCTAATTGGTCAGGAGGTCACACACCGGATATGAGCGATTGACAGCGTAGAATGAAGG DNA 2: CCTTCATTCTACGCTGTCAATCGCTCATATCCGGTGTGTGACCTCCTGACCAATTAGGGC	3.96 PBM z-score against 500 random probes
NRC3_wobSeed72_DR2_A6C_o1 (dsDNA) DNA 1: GCTCGCGTAGGTTACGGGGGCATTCAGGGATGAAGAGCGATTGACAGCGTAGAATGAAGG DNA 2: CCTTCATTCTACGCTGTCAATCGCTCTTCATCCCTGAATGCCCCCGTAACCTACGCGAGC	3.92 PBM z-score against 500 random probes

Binder	binding signal
NRC3_wobSeed124_DR5_C17T_o1 (dsDNA) DNA 1: GCCCTACTGGGCCATTTAGAGGTCATTGATCATATGGCGATTGACAGCGTAGAATGAAGG DNA 2: CCTTCATTCTACGCTGTCAATCGCCATATGATCAATGACCTCTAAATGGCCCAGTAGGGC	3.9 PBM z-score against 500 random probes
NRC3_wobSeed124_DR5_A29G_o1 (dsDNA) DNA 1: GCCCTACTGGGCCATTCAGAGGTCATTGGTCATATGGCGATTGACAGCGTAGAATGAAGG DNA 2: CCTTCATTCTACGCTGTCAATCGCCATATGACCAATGACCTCTGAATGGCCCAGTAGGGC	3.87 PBM z-score against 500 random probes
NRC3_wobSeed69_DR2_T5A_o1 (dsDNA) DNA 1: GCAGACAAAGTTCACTAGGTAACGTAAGATTCAGCTGCGATTGACAGCGTAGAATGAAGG DNA 2: CCTTCATTCTACGCTGTCAATCGCAGCTGAATCTTACGTTACCTAGTGAACTTTGTCTGC	3.85 PBM z-score against 500 random probes
NRC3_wobSeed2_DR0_A22T_o1 (dsDNA) DNA 1: GCCCTAGTTGGTCAAGGTCACTCACGCTATAGGTACGCGATTGACAGCGTAGAATGAAGG DNA 2: CCTTCATTCTACGCTGTCAATCGCGTACCTATAGCGTGAGTGACCTTGACCAACTAGGGC	3.83 PBM z-score against 500 random probes
NRC3_wobSeed61_DR2_G4C_o1 (dsDNA) DNA 1: GCCCTCCAAGGTCAGCAGGTCAGTGAAAGCGACGTGGCGATTGACAGCGTAGAATGAAGG DNA 2: CCTTCATTCTACGCTGTCAATCGCCACGTCGCTTTCACTGACCTGCTGACCTTGGAGGGC	3.8 PBM z-score against 500 random probes
NRC3_wobSeed86_DR3_T8G_o1 (dsDNA) DNA 1: GCGCTGCGAGGTCAGGTTGGTCAGCTAACGGGTACGGCGATTGACAGCGTAGAATGAAGG DNA 2: CCTTCATTCTACGCTGTCAATCGCCGTACCCGTTAGCTGACCAACCTGACCTCGCAGCGC	3.78 PBM z-score against 500 random probes
NRC3_wobSeed133_DR5_G21T_o1 (dsDNA) DNA 1: GCCGTCCAAGGTCAATGCTATGTCAGTGAAAGCATTGCGATTGACAGCGTAGAATGAAGG DNA 2: CCTTCATTCTACGCTGTCAATCGCAATGCTTTCACTGACATAGCATTGACCTTGGACGGC	3.76 PBM z-score against 500 random probes
NRC3_wobSeed21_DR0_T5A_o1 (dsDNA) DNA 1: GCCGACAAAGTTCAAGGTAACGTAACAGAAAGCAGCGCGATTGACAGCGTAGAATGAAGG DNA 2: CCTTCATTCTACGCTGTCAATCGCGCTGCTTTCTGTTACGTTACCTTGAACTTTGTCGGC	3.74 PBM z-score against 500 random probes
NRC3_wobSeed27_DR1_G7C_o1 (dsDNA) DNA 1: GCACTCCGAGGACAAAGGTCAGAGCTACGCCAGTGAGCGATTGACAGCGTAGAATGAAGG DNA 2: CCTTCATTCTACGCTGTCAATCGCTCACTGGCGTAGCTCTGACCTTTGTCCTCGGAGTGC	3.7 PBM z-score against 500 random probes
NRC3_wobSeed122_DR5_C28A_o1 (dsDNA) DNA 1: GCGCTAGTTGGTCAGTAAAAGGTCACAAACCGGTCGGCGATTGACAGCGTAGAATGAAGG DNA 2: CCTTCATTCTACGCTGTCAATCGCCGACCGGTTTGTGACCTTTTACTGACCAACTAGCGC	3.68 PBM z-score against 500 random probes
NRC3_wobSeed82_DR3_T21G_o1 (dsDNA) DNA 1: GCATCGAAAGGTCGACGAGGGGAGTATACACCGTTTGCGATTGACAGCGTAGAATGAAGG DNA 2: CCTTCATTCTACGCTGTCAATCGCAAACGGTGTATACTCCCCTCGTCGACCTTTCGATGC	3.65 PBM z-score against 500 random probes
NRC3_wobSeed74_DR3_A14C_o1 (dsDNA) DNA 1: GCTCTAGTTGGTCCCGGAGGTCACACACGACGGGTAGCGATTGACAGCGTAGAATGAAGG DNA 2: CCTTCATTCTACGCTGTCAATCGCTACCCGTCGTGTGTGACCTCCGGGACCAACTAGAGC	3.63 PBM z-score against 500 random probes
NRC3_wobSeed98_DR4_T12C_o1 (dsDNA) DNA 1: GCACTAGTTGGCCAGCTGAGGTCACACACAATTCGGGCGATTGACAGCGTAGAATGAAGG DNA 2: CCTTCATTCTACGCTGTCAATCGCCCGAATTGTGTGTGACCTCAGCTGGCCAACTAGTGC	3.6 PBM z-score against 500 random probes
NRC3_wobSeed90_DR3_A28C_o1 (dsDNA) DNA 1: GCCATACAGGGTCAGCTAGGCCAGAGTCGGGACGGCGCGATTGACAGCGTAGAATGAAGG DNA 2: CCTTCATTCTACGCTGTCAATCGCGCCGTCCCGACTCTGGCCTAGCTGACCCTGTATGGC	3.58 PBM z-score against 500 random probes
NRC3_wobSeed137_DR5_A14T_o1 (dsDNA) DNA 1: GCATATGTAGGTTTCATCCGGGTCATTCAGGCTATGGCGATTGACAGCGTAGAATGAAGG DNA 2: CCTTCATTCTACGCTGTCAATCGCCATAGCCTGAATGACCCGGATGAAACCTACATATGC	3.52 PBM z-score against 500 random probes
NRC3_wobSeed5_DR0_C24G_o1 (dsDNA) DNA 1: GCCCTTACGGGTCAAGGTTATAGGACGGGTGGTACGGCGATTGACAGCGTAGAATGAAGG DNA 2: CCTTCATTCTACGCTGTCAATCGCCGTACCACCCGTCCTATAACCTTGACCCGTAAGGGC	3.5 PBM z-score against 500 random probes

Source: publication PMC6555819, “Comprehensive study of nuclear receptor DNA binding provides a revised framework for understanding receptor specificity”
